The supplement of paper PMC9112550, “Optimization of the antimicrobial peptide Bac7 by deep mutational scanning” (BMC Biology, 2022)

system: Escherichia coli TOP10; assay: shrunken log2 fold change of peptide-encoding DNA abundance (4.5 h post-induction vs induction); higher = less antimicrobial activity (less host growth inhibition); details: time post-induction: 4.5 h; library: site-saturation at positions 5, 18, 19, 20
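Further: peptides expressed intracellularly from a pBAD plasmid library in pooled LB shake-flask culture, induced with 0.3% L-arabinose, DNA abundance read by NGS, three biological replicates, DESeq2 with apeglm shrinkage.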

Row | Sequence | shrunken log2 fold change
1 | RRIRTRPPRLPRPRPRPQKCPRP | -0.0262
2 | RRIRRRPPRLPRPRPRPPQLPRP | 1.02
3 | RRIRWRPPRLPRPRPRPGLYPRP | -0.036
4 | RRIRSRPPRLPRPRPRPAIMPRP | -0.152
5 | RRIRHRPPRLPRPRPRPYVNPRP | -0.0772
6 | RRIRWRPPRLPRPRPRPQKFPRP | -0.0956
7 | RRIRIRPPRLPRPRPRPTYGPRP | -0.548
8 | RRIRARPPRLPRPRPRPEEYPRP | -0.0897
9 | RRIRNRPPRLPRPRPRPLVCPRP | -0.201
10 | RRIRWRPPRLPRPRPRPPALPRP | 0.433
11 | RRIRTRPPRLPRPRPRPVIAPRP | -0.189
12 | RRIRARPPRLPRPRPRPESTPRP | 1.05
13 | RRIRCRPPRLPRPRPRPVAYPRP | -0.232
14 | RRIRDRPPRLPRPRPRPYSCPRP | 0.0113
15 | RRIRDRPPRLPRPRPRPFRQPRP | -0.137
16 | RRIRIRPPRLPRPRPRPFWLPRP | 0.183
17 | RRIRHRPPRLPRPRPRPNATPRP | 0.255
18 | RRIRSRPPRLPRPRPRPYGFPRP | -0.85
19 | RRIRRRPPRLPRPRPRPFRRPRP | 0.322
20 | RRIRKRPPRLPRPRPRPLELPRP | 0.134
21 | RRIRHRPPRLPRPRPRPAVFPRP | -0.0167
22 | RRIRNRPPRLPRPRPRPIKHPRP | -0.724
23 | RRIRQRPPRLPRPRPRPYVRPRP | -0.216
24 | RRIRDRPPRLPRPRPRPLNAPRP | -0.0226
25 | RRIRWRPPRLPRPRPRPKWDPRP | 0.185

Row | Sequence | shrunken log2 fold change
26 | RRIRPRPPRLPRPRPRPCGEPRP | -0.0188
27 | RRIRARPPRLPRPRPRPGDPPRP | 0.971
28 | RRIRKRPPRLPRPRPRPCLQPRP | 0.194
29 | RRIRMRPPRLPRPRPRPQCDPRP | -0.0599
30 | RRIRNRPPRLPRPRPRPHRKPRP | 0.0299
31 | RRIRCRPPRLPRPRPRPDDYPRP | 0.0185
32 | RRIRRRPPRLPRPRPRPTQLPRP | 0.628
33 | RRIRHRPPRLPRPRPRPIRHPRP | -0.0447
34 | RRIRCRPPRLPRPRPRPPRSPRP | 0.993
35 | RRIRSRPPRLPRPRPRPTHSPRP | 0.186
36 | RRIRNRPPRLPRPRPRPRTNPRP | -0.166
37 | RRIRHRPPRLPRPRPRPNSPPRP | -0.337
38 | RRIRVRPPRLPRPRPRPLHEPRP | -0.0936
39 | RRIRTRPPRLPRPRPRPSWQPRP | -0.073
40 | RRIRLRPPRLPRPRPRPNFSPRP | -0.00932
41 | RRIRHRPPRLPRPRPRPLPMPRP | -0.00404
42 | RRIRPRPPRLPRPRPRPEGKPRP | -0.124
43 | RRIRFRPPRLPRPRPRPIWPPRP | 0.21
44 | RRIRTRPPRLPRPRPRPTLKPRP | 0.00476
45 | RRIRQRPPRLPRPRPRPAALPRP | 0.247
46 | RRIRPRPPRLPRPRPRPRQKPRP | 0.0891
47 | RRIRDRPPRLPRPRPRPVSWPRP | 1.13
48 | RRIRGRPPRLPRPRPRPNYEPRP | 0.161
49 | RRIRARPPRLPRPRPRPFNKPRP | -0.0214
50 | RRIRVRPPRLPRPRPRPFWCPRP | -0.121

Row | Sequence | shrunken log2 fold change
51 | RRIRERPPRLPRPRPRPGKGPRP | 0.208
52 | RRIRTRPPRLPRPRPRPMIGPRP | -0.107
53 | RRIRWRPPRLPRPRPRPQNKPRP | -0.536
54 | RRIRIRPPRLPRPRPRPGSNPRP | -0.515
55 | RRIRVRPPRLPRPRPRPVITPRP | -0.207
56 | RRIRRRPPRLPRPRPRPKRTPRP | 0.759
57 | RRIRKRPPRLPRPRPRPCSDPRP | -0.0361
58 | RRIRARPPRLPRPRPRPVFIPRP | -0.201
59 | RRIRVRPPRLPRPRPRPHTHPRP | -0.414
60 | RRIRGRPPRLPRPRPRPASYPRP | -0.14
61 | RRIRCRPPRLPRPRPRPSNSPRP | -0.644
62 | RRIRNRPPRLPRPRPRPVYQPRP | -0.00185
63 | RRIRDRPPRLPRPRPRPTNIPRP | -0.271
64 | RRIRSRPPRLPRPRPRPRDQPRP | -0.0856
65 | RRIRDRPPRLPRPRPRPRPNPRP | 0.323
66 | RRIRERPPRLPRPRPRPGINPRP | -0.249
67 | RRIRWRPPRLPRPRPRPSKGPRP | 0.0944
68 | RRIRLRPPRLPRPRPRPDRGPRP | 0.0151
69 | RRIRNRPPRLPRPRPRPEILPRP | -0.0178
70 | RRIRCRPPRLPRPRPRPECHPRP | 0.0568
71 | RRIRIRPPRLPRPRPRPNCCPRP | -0.0793
72 | RRIRVRPPRLPRPRPRPFYEPRP | -0.453
73 | RRIRFRPPRLPRPRPRPITHPRP | -0.49
74 | RRIRARPPRLPRPRPRPKNLPRP | -0.181
75 | RRIRMRPPRLPRPRPRPHHGPRP | -0.762

Row | Sequence | shrunken log2 fold change
76 | RRIRCRPPRLPRPRPRPFEKPRP | -0.0689
77 | RRIRWRPPRLPRPRPRPYDTPRP | -0.495
78 | RRIRIRPPRLPRPRPRPDVAPRP | -0.206
79 | RRIRWRPPRLPRPRPRPIKFPRP | -0.285
80 | RRIRLRPPRLPRPRPRPGAGPRP | 0.448
81 | RRIRQRPPRLPRPRPRPNRQPRP | 0.0872
82 | RRIRARPPRLPRPRPRPDTEPRP | 0.00829
83 | RRIRPRPPRLPRPRPRPVNMPRP | 0.0158
84 | RRIRLRPPRLPRPRPRPAPQPRP | 0.609
85 | RRIRGRPPRLPRPRPRPSGMPRP | 0.48
86 | RRIRSRPPRLPRPRPRPRGYPRP | 0.13
87 | RRIRFRPPRLPRPRPRPPCTPRP | -0.228
88 | RRIRLRPPRLPRPRPRPCCHPRP | -0.215
89 | RRIRYRPPRLPRPRPRPYKWPRP | -0.169
90 | RRIRRRPPRLPRPRPRPAMFPRP | 0.372
91 | RRIRWRPPRLPRPRPRPMDYPRP | -0.314
92 | RRIRFRPPRLPRPRPRPTFGPRP | 0.0623
93 | RRIRQRPPRLPRPRPRPHLVPRP | 0.00244
94 | RRIRIRPPRLPRPRPRPKSHPRP | -0.451
95 | RRIRVRPPRLPRPRPRPGSSPRP | -0.169
96 | RRIRVRPPRLPRPRPRPEMQPRP | 0.175
97 | RRIRIRPPRLPRPRPRPHTKPRP | -1.68
98 | RRIRRRPPRLPRPRPRPMCEPRP | 0.516
99 | RRIRYRPPRLPRPRPRPMCHPRP | -0.0146
100 | RRIRSRPPRLPRPRPRPEEWPRP | -0.0481

Row | Sequence | shrunken log2 fold change
101 | RRIRCRPPRLPRPRPRPSCVPRP | -0.0959
102 | RRIRIRPPRLPRPRPRPYLHPRP | -1.61
103 | RRIRCRPPRLPRPRPRPVFDPRP | -0.198
104 | RRIRTRPPRLPRPRPRPVTMPRP | -0.289
105 | RRIRPRPPRLPRPRPRPFREPRP | 0.261
106 | RRIRERPPRLPRPRPRPFMCPRP | -0.158
107 | RRIRIRPPRLPRPRPRPIEHPRP | 0.00487
108 | RRIRSRPPRLPRPRPRPPEGPRP | 0.704
109 | RRIRDRPPRLPRPRPRPMCKPRP | 0.108
110 | RRIRGRPPRLPRPRPRPLSQPRP | 0.872
111 | RRIRKRPPRLPRPRPRPLQDPRP | 0.485
112 | RRIRGRPPRLPRPRPRPHCEPRP | 0.22
113 | RRIRKRPPRLPRPRPRPPRWPRP | 1.07
114 | RRIRTRPPRLPRPRPRPVYNPRP | -0.239
115 | RRIRARPPRLPRPRPRPWIHPRP | -0.264
116 | RRIRIRPPRLPRPRPRPPDNPRP | -0.368
117 | RRIRTRPPRLPRPRPRPNCGPRP | 0.0396
118 | RRIRARPPRLPRPRPRPYCQPRP | -0.138
119 | RRIRTRPPRLPRPRPRPQFCPRP | -0.486
120 | RRIRKRPPRLPRPRPRPYPHPRP | -0.207
121 | RRIRQRPPRLPRPRPRPDFWPRP | 0.0103
122 | RRIRPRPPRLPRPRPRPLEFPRP | -0.241
123 | RRIRDRPPRLPRPRPRPVLTPRP | 0.31
124 | RRIRIRPPRLPRPRPRPCFRPRP | -0.233
125 | RRIRYRPPRLPRPRPRPHHIPRP | -0.356

Row | Sequence | shrunken log2 fold change
126 | RRIRIRPPRLPRPRPRPLAIPRP | -1.11
127 | RRIRGRPPRLPRPRPRPGQPPRP | 0.462
128 | RRIRGRPPRLPRPRPRPGIEPRP | 0.118
129 | RRIRIRPPRLPRPRPRPEVYPRP | -0.0738
130 | RRIRERPPRLPRPRPRPDKRPRP | -0.023
131 | RRIRQRPPRLPRPRPRPDNIPRP | -0.00584
132 | RRIRQRPPRLPRPRPRPEPGPRP | 0.485
133 | RRIRDRPPRLPRPRPRPQGNPRP | -0.0306
134 | RRIRSRPPRLPRPRPRPVWSPRP | 0.0126
135 | RRIRKRPPRLPRPRPRPDPAPRP | 0.688
136 | RRIRGRPPRLPRPRPRPEMYPRP | 0.837
137 | RRIRSRPPRLPRPRPRPLYRPRP | -0.346
138 | RRIRHRPPRLPRPRPRPTAYPRP | -0.23
139 | RRIRIRPPRLPRPRPRPMHQPRP | -0.121
140 | RRIRQRPPRLPRPRPRPAYWPRP | 0.128
141 | RRIRHRPPRLPRPRPRPDSYPRP | -0.0167
142 | RRIRCRPPRLPRPRPRPAYPPRP | -0.149
143 | RRIRMRPPRLPRPRPRPSFIPRP | -0.668
144 | RRIRKRPPRLPRPRPRPIFGPRP | 2.55
145 | RRIRCRPPRLPRPRPRPADIPRP | -0.941
146 | RRIRRRPPRLPRPRPRPWDMPRP | 0.0681
147 | RRIRMRPPRLPRPRPRPTKWPRP | 0.445
148 | RRIRVRPPRLPRPRPRPIPIPRP | -0.106
149 | RRIRHRPPRLPRPRPRPTHGPRP | 0.125
150 | RRIRQRPPRLPRPRPRPNDAPRP | -0.0276
